T1: DVL3, Q92997
T1 sequence (Q92997 244-331, limits assumed, looked up): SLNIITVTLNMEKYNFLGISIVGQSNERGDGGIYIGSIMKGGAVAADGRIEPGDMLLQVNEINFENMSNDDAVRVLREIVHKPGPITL

T2: RADIL, Q96JH8
T2 sequence (Q96JH8 971-1071, limits assumed, looked up): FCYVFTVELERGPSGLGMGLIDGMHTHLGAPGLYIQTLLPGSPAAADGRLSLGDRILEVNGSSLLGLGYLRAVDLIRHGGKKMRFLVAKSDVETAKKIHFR

T3: PTPN13_1, Q12923
T3 sequence (Q12923 1088-1188, limits assumed, looked up): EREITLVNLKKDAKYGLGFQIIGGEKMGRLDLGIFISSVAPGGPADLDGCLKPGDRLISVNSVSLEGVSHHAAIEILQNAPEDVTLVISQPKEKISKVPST

T4: ARHGEF11, O15085
T4 sequence (O15085 42-136, limits assumed, looked up): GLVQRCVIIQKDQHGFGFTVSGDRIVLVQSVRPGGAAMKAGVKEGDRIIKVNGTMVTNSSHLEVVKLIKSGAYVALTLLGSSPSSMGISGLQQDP

T5: SIPA1L2, Q9P2F8
T5 sequence (Q9P2F8 945-1036, limits assumed, looked up): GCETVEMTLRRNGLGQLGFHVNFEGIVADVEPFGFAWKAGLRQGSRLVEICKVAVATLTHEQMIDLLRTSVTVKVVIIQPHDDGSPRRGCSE

T6: MPP6, Q9NZW5
T6 sequence (Q9NZW5 125-219, limits assumed, looked up): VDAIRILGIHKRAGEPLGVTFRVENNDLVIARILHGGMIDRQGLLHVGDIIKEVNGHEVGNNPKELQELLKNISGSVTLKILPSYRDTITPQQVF

T7: MPDZ_5, O75970
T7 sequence (O75970 695-796, limits assumed, looked up): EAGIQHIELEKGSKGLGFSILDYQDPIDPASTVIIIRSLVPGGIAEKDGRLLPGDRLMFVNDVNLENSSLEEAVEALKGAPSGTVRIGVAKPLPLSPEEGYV

T8: MPDZ_10, O75970
T8 sequence (O75970 1624-1722, limits assumed, looked up): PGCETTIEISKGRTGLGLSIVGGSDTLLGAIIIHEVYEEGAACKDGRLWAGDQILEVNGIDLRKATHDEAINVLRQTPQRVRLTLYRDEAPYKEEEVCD

T9: ARHGAP21, Q5T5U3
T9 sequence (Q5T5U3 45-169, limits assumed, looked up): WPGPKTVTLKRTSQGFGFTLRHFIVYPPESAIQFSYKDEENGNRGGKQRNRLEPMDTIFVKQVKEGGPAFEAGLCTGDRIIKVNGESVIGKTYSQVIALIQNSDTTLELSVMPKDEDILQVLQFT

T10: CARD11, Q9BXL7
T10 sequence (Q9BXL7 662-765, limits assumed, looked up): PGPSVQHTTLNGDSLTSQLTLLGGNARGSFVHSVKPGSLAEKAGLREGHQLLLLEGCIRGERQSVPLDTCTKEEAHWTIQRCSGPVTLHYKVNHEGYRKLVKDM

T11: LIN7C, Q9NUP9
T11 sequence (Q9NUP9 88-185, limits assumed, looked up): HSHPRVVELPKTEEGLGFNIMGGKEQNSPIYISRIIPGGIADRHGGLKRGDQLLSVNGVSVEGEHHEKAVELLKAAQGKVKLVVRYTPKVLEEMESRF

T12: RAPGEF6, Q8TEU7
T12 sequence (Q8TEU7 525-625, limits assumed, looked up): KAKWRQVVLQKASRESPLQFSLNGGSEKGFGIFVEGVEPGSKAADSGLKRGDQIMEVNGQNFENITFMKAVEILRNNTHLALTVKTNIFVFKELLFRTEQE


Tests used:
Test in all cases: holdup assay
Set-up in all cases: key: below the threshold = too weak to quantify, mostly under pKd 3.1 to 4
Details in all cases: plain residues with an end cap or a label only (N-terminal biotin on a linker: ttds)
HTRA2, O43464 = target: HTRA2, O43464
Inadl_3, Q8NI35 = target: Inadl_3, Q8NI35
IL16_4, Q14005 = target: IL16_4, Q14005
DVL3, Q92997 = target: T1, DVL3, Q92997
RADIL, Q96JH8 = target: T2, RADIL, Q96JH8
NHERF4_4, Q86UT5 = target: NHERF4_4, Q86UT5
PTPN13_1, Q12923 = target: T3, PTPN13_1, Q12923
ARHGEF11, O15085 = target: T4, ARHGEF11, O15085
GIPC2, Q8TF65 = target: GIPC2, Q8TF65
SIPA1L2, Q9P2F8 = target: T5, SIPA1L2, Q9P2F8
MPP6, Q9NZW5 = target: T6, MPP6, Q9NZW5
MPDZ_5, O75970 = target: T7, MPDZ_5, O75970
MAGI1_2, Q96QZ7 = target: MAGI1_2, Q96QZ7
Inadl_6, Q8NI35 = target: Inadl_6, Q8NI35
MPDZ_10, O75970 = target: T8, MPDZ_10, O75970
ARHGAP21, Q5T5U3 = target: T9, ARHGAP21, Q5T5U3
Inadl_2, Q8NI35 = target: Inadl_2, Q8NI35
GRIP2_5, Q9C0E4 = target: GRIP2_5, Q9C0E4
CARD11, Q9BXL7 = target: T10, CARD11, Q9BXL7
LIN7C, Q9NUP9 = target: T11, LIN7C, Q9NUP9
PDLIM1, O00151 = target: PDLIM1, O00151
TJP1_3, Q07157 = target: TJP1_3, Q07157
RAPGEF6, Q8TEU7 = target: T12, RAPGEF6, Q8TEU7
ARHGEF12, Q9NZN5-2 = target: ARHGEF12, Q9NZN5-2
PTPN3, P26045 = target: PTPN3, P26045
PTPN3, P26045, sequence (P26045 505-587): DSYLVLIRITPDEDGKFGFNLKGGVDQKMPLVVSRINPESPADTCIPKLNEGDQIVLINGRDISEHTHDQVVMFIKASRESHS

Inadl_3, Q8NI35, sequence (Q8NI35 359-469): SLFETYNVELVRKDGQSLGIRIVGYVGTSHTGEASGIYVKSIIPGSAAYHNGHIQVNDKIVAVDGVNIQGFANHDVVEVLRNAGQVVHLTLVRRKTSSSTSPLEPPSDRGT
GIPC2, Q8TF65, sequence (Q8TF65 112-203): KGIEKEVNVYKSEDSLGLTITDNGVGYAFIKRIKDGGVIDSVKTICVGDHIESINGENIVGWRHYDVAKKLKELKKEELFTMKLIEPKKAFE
PDLIM1, O00151, sequence (O00151 1-87): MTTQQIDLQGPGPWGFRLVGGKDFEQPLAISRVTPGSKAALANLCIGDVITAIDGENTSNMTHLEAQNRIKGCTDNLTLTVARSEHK
NHERF4_4, Q86UT5, sequence (Q86UT5 464-550): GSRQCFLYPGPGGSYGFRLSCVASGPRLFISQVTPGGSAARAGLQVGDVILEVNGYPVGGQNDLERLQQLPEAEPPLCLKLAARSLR
Inadl_2, Q8NI35, sequence (Q8NI35 238-335): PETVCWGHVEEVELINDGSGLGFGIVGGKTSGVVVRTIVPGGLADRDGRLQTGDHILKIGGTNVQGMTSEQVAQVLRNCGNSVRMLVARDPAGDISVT
ARHGEF12, Q9NZN5-2, sequence (Q9NZN5 other isoform, or with tags, fused parts or gaps): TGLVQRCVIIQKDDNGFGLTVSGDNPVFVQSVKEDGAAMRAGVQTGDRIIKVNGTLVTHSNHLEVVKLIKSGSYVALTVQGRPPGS
HTRA2, O43464, sequence (O43464 355-458): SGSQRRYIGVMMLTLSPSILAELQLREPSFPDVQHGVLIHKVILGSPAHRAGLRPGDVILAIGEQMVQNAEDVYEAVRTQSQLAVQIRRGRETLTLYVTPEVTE
Inadl_6, Q8NI35, sequence (Q8NI35 1058-1167): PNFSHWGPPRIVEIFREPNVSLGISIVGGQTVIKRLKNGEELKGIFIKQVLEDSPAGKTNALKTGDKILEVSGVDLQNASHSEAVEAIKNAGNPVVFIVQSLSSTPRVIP
GRIP2_5, Q9C0E4, sequence (Q9C0E4 544-642): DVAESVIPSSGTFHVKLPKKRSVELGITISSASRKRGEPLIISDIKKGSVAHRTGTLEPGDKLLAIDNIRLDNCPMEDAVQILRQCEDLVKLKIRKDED
MAGI1_2, Q96QZ7, sequence (Q96QZ7 456-580): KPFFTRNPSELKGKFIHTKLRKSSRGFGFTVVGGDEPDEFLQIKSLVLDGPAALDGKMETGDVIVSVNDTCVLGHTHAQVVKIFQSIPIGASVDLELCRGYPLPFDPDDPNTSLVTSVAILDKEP
IL16_4, Q14005, sequence (Q14005 1229-1329): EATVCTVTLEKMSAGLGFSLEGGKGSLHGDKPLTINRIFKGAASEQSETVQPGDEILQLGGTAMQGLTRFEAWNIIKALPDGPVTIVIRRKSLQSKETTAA
TJP1_3, Q07157, sequence (Q07157 416-512): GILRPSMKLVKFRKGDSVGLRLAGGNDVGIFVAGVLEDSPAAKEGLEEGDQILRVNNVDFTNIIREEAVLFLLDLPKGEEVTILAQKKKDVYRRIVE

Row | pKd (HTRA2, O43464) | pKd (Inadl_3, Q8NI35) | pKd (IL16_4, Q14005) | pKd (DVL3, Q92997) | pKd (RADIL, Q96JH8) | pKd (NHERF4_4, Q86UT5) | pKd (PTPN13_1, Q12923) | pKd (ARHGEF11, O15085) | pKd (GIPC2, Q8TF65) | pKd (SIPA1L2, Q9P2F8) | pKd (MPP6, Q9NZW5) | pKd (MPDZ_5, O75970) | pKd (MAGI1_2, Q96QZ7) | pKd (Inadl_6, Q8NI35) | pKd (MPDZ_10, O75970) | pKd (ARHGAP21, Q5T5U3) | pKd (Inadl_2, Q8NI35) | pKd (GRIP2_5, Q9C0E4) | pKd (CARD11, Q9BXL7) | pKd (LIN7C, Q9NUP9) | Binder | also measured
1 | below the threshold | 3.51 | below the threshold | below the threshold | below the threshold | below the threshold | below the threshold | 4.27 | 3.88 | below the threshold | below the threshold | below the threshold | 3.78 | 4.31 | below the threshold | 3.58 | below the threshold | below the threshold | below the threshold | 4.45 | SPLHSLETSL [ATP2B1, P20020] | pKd (PDLIM1, O00151): 3.71; pKd (TJP1_3, Q07157): below the threshold; pKd (RAPGEF6, Q8TEU7): below the threshold; pKd (ARHGEF12, Q9NZN5-2): 4.88; pKd (PTPN3, P26045): 4.95
2 | below the threshold | 3.8 | below the threshold | 3.65 | below the threshold | below the threshold | below the threshold | 4.21 | 3.75 | below the threshold | below the threshold | 3.6 | 3.9 | below the threshold | 3.71 | 3.63 | below the threshold | below the threshold | below the threshold | below the threshold | MERLRVETDV [ARHGEF16, Q5VV41] | pKd (PDLIM1, O00151): 4; pKd (TJP1_3, Q07157): below the threshold; pKd (RAPGEF6, Q8TEU7): below the threshold; pKd (ARHGEF12, Q9NZN5-2): 4.22; pKd (PTPN3, P26045): 4.38
3 | below the threshold | below the threshold | below the threshold | below the threshold | below the threshold | below the threshold | below the threshold | 4.47 | 3.67 | below the threshold | below the threshold | below the threshold | below the threshold | 4.02 | below the threshold | below the threshold | below the threshold | below the threshold | below the threshold | 4.49 | IQREDQETAV [DGKZ, Q13574] | pKd (PDLIM1, O00151): below the threshold; pKd (TJP1_3, Q07157): below the threshold; pKd (RAPGEF6, Q8TEU7): below the threshold; pKd (ARHGEF12, Q9NZN5-2): 4.22; pKd (PTPN3, P26045): 5.12
